In assay [1] the target is commercially-prepared stable A-beta42 Oligomers (SynAging SAS) (human). The experiment in a line: SPR; antibody covalently immobilized, stable A-beta42 oligomers (1 microM) injected. (In general: SPR reads the build-up and loss of mass on a sensor chip optically.)
Assay [2] has as its target A-beta42 Monomer (human). The experiment in a line: SPR; purified antibody immobilized, A-beta preparation flowed over.
Assay [3] concerns the target A-beta42 Oligomer (synthetic, prepared in F12 medium) (human). The assay is described as above.
Assay [4] deals with A-beta42 Monomer (human). Briefly: SPR (MASS-1) direct binding; hybridoma culture supernatant over immobilized A-beta42 monomer.
Chain of A-beta42 Monomer (human) (peptide, as listed by the source): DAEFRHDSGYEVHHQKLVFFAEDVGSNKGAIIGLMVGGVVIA
In assay [5] the target is A-beta42 Oligomer (synthetic, prepared in F12 medium) (human). Briefly: SPR (MASS-1) direct binding; hybridoma culture supernatant over immobilized A-beta42 oligomer.
Chain of A-beta42 Oligomer (synthetic, prepared in F12 medium) (human) (peptide, as listed by the source): as above
Assay [6] concerns the target T1, linear CGHHQKG (SEQ ID NO: 12) conjugated to BSA.
T1 sequence (peptide, linear (not cyclized); conjugated to BSA): CGHHQKG
Briefly: SPR (MASS-1) direct binding; hybridoma culture supernatant over immobilized BSA-conjugated peptide.

The target of assay [7] is T2, cyclo(CGHHQKG) (SEQ ID NO: 12) conjugated to BSA.
T2 sequence (peptide, cyclic peptide, cyclo(CGHHQKG); conjugated to BSA): CGHHQKG
Described as above.

This is an account of results in US20200181247A1.

Chain of commercially-prepared stable A-beta42 Oligomers (SynAging SAS) (human) (peptide, as listed by the source): as above

B1: 301-3 (antibody, part only; not given: Light chain, two candidates, IgG3, V domains shown, part only)
VH: EVQLVESGGGLVKPGGSLKLSCAASGFTFSDYYMYWVRQTPEKRLEWVATISDGGSYTSYPDSVKGRFTISRDSAKNNLYLQMSSLKSEDTAMYYCARDYYGSNSYTSGFAYWGQGTLVTVSA
As for B1, the binding response units (BRUs), average in assay [1] came out at 14.5 BRU. Also, the binding response (RU) with A-beta42 Monomer (human) [2] is -23.8 RU; in assay [3], 15.5 RU; with A-beta42 Monomer (human) [4], -1.8 RU; in assay [5], 56.8 RU; in assay [6], 60.6 RU; in assay [7], 469 RU.
